Test [1] deals with T1, hemagglutinin (HA) of influenza A/Solomon Islands/3/06 H1N1 (Influenza A virus A/Solomon …). Nature of the test: cell-based or functional assay.
In test [2] the target is hemagglutinin (HA) of influenza A/Japan/305/57 H2N2 (Influenza A virus A/Japan/305/1957 …, UniProt P03451 16-562). Kind of test: ELISA, inactivated whole virions coated; transfection supernatant set 5. A general note: An ELISA detects its analyte on a solid surface through an enzyme-linked reagent.
Test [3] deals with T1, hemagglutinin (HA) of influenza …. The test is described as above.

B1: TCN-537 (3194_D21) (antibody, V domains shown)
VH: QVQLQQWGSGLLKPSETLSLTCAVYGGSFRDDYWTWIRQPPGKGLEWIGEINHSGRTNYNPSLKSRVTISVDTSLKQFSLKVISVTAADTAVYYCARGTSHVSRYFDWLPPTNWFDPWGQGTQVTVSS
VL: DIVLTQSPGTLSLSPGERATLSCRASQSVSSSYLAWYQQKPGQAPRLVMYGAATRATGIPDRFSGSGSGPDFTLTISRLEPEDFAMYYCQQYGNSPITFGQGTRLEIK
With B1, the “% Neutralization” value in test [1] worked out at 89%. The figures for the OD450 in test [2] and in test [3] were 3.48 OD450 and 3.56 OD450, respectively.

B2: TCN-557 (5081_A04) (antibody, V domains shown)
VH: QVQLVQSGAEVKKPGASVKVSCKASGHTFTGYYIHWVRQAPGQGLEWMGWINPDSGATSSAQNFQGRVTMTGDTSSSTAYMELSRLSFDDTAVYYCARVLFTSPFDFWGEGTLVTVSS
VL: QAVVTQEPSLAVSPGGTVTLTCGSSTGAVTRGHYPYWFQQKPGQAPRALIYDSAGNRHSWTPARFSGSLLGGKAALTLSGAQPEDEAEYYCLLSYSGVWVFGGGTKLTVL
Turning to B2, the OD450 in test [2] worked out at 3.59 OD450; in test [3], 3.58 OD450.

B3: TCN-547 (5092_F11) (antibody, V domains shown)
VH: QVQLQESGPGLVKPSQTLSLTCTVSGDSISSVDHYWSWIRQHPVKGLEWIGFMYYSASTYYNPSLKSRVTISTDTSKNQFSLRLSSVTAADTAVYYCARGTCAGDCSLHYYYYGLDVWGQGRTVTVSS
VL: DIQMTQSPSSLSASVGDRVTITCRASQSISSYLNWYQHKPGKAPKVLMYAVSILQSGVPSRFSGSGSGADFTLTISSLQPEDFATYYCQQSYSSPLTFGGGTKVEIK
In the case of B3, the OD450 in test [2] and in test [3] was 0.09 OD450 throughout.

B4: TCN-558 (5248_H10b) (antibody, V domains shown)
VH: QVQLVQSGSEVKKPGTSVKVSCTASGSVFTNYGISWVRQAPGQGLEWMGGIIPLFGAAKYAQKFQGRVTITADESTKTVYMELSRLTSKDTAIYFCAKAPRVYEYYFDQWGQGTPVTVSS
VL: EIVMTQFPATLSVSPGERVTLSCRASQSVSNNLAWYQQKPGQPPRLLIYDASTRATGVPAKFSGTGSGTEFTLSISSLQSEDFAVYYCQQYHNWPPSYSFGLGTKLEIK
Take B4: the OD450 in test [2] was 3.31 OD450; in test [3], 3.52 OD450.

B5: TCN-551 (5243_D01) (antibody, V domains shown)
VH: EVQLVQSGSEVKKPGESLKISCKGSGYSFSNYWIGWVRHMPGKGLEWMGIIYPGDSDTRYSPSFQGQVTMSADKSSSTVYLQWSSLKASDTAIYYCARRGGHSFGYGSGGDTHSEFDSWGQGTLVTVSS
VL: QSVLTQSPSVSAAPGQKVTISCSGSDSNIGDYFVCWYQHLPGKPPQLLIYENNKRPSGIPDRFSGSKSGTSATLGITGIQTGDEADYYCATWDGSLSAWVFGGGTKLTVL
Take B5: the “% Neutralization” value in test [1] was 100%. The OD450 in test [3] was 3.65 OD450.

B6: TCN-538 (3206_O17) (antibody, V domains shown)
VH: QITLKESGPTLVKPTQTLTLTCVFSGFSLSITGVRVGWIRQPPGKALEWLALISWDDEKHYSPSLQSRLTITKDTSKNQVVLTMTNLDPVDTATYYCARSTDRGHVLRYFGWMLPGDAFDVWGQGTMVTVSS
VL: DIVMTQSPDFLPVSLGERATINCKSSQRVLYSSNNKNYLAWYQLKPGQPPKLIIYWASTRESGVPDRFSGSGSGTEFTLTISSLQAEDVAVYYCQQYYSRPYTFGQGTKLEIK
In the case of B6, the “% Neutralization” value in test [1] amounted to 35%. Moreover, the OD450 in test [2] was determined as 3.37 OD450; in test [3], 3.59 OD450.

B7: TCN-544 (5082_A19) (antibody, V domains shown)
VH: QVQLQESGPGLVKPSETLSLTCTVSRGSIGHYFWSWIRQPPGKGLEWIGYISYSGSTKYNPSLRSRVTISVDTSKNQFSLNLNSVTATDTALYYCAREDYDILTGAGPGMEVWGQGTTVTVSS
VL: QSMLTQPPSASGTPGQRVTISCSGSSSNIGSNTVNWFKHLPGTAPKLLIYRNDLRPSGVPDRFSGSKSGTSASLAISGLQSEDEADYYCATWDDSLNGFYVFGTGTKVTVL
Take B7: the “% Neutralization” value in test [1] was found to be 95%. For the same molecule, the OD450 in test [2] and in test [3] was 0.07 OD450 throughout.

B8: TCN-543 (5081_G23) (antibody, V domains shown)
VH: QVHLVQSGAEVRKPGDSVKVSCKTSGYTFSTYPVAWVRQVPGQGLEWMGWISTYNGNTNFAQNFQGRVTLTTDTTTNTAYMEVRSLKFDDTAVYYCARVEGSYRDFWNNQNRFDPWGQGTLVTVSS
VL: SYVLTQPPSVSVAPGQTARISCGGSNIGGKSVHWYQQKPGQAPVLVVYDDSGRPSGIPERFSGSNSGDTATLTISRVEAGDEADYFCQVWDNFGGVFGTGTKVTVL
For B8, the “% Neutralization” value in test [1] is 100%. For the same molecule, the OD450 was determined as 3.64 OD450 in test [2] and 3.63 OD450 in test [3].

B9: TCN-556 (5089_K12) (antibody, V domains shown)
VH: QVQLVQSGAEVKKPGASVKVSCKASGYTFIGYDMHWVRQAPGQGLEWMGWINAKRGGTNYAQKFQGRVTMTRDTSISTAYMELNSLRSDDTAVYYCARGVGSRTTIFGVLNPEFDYWGQGTLVTVSS
VL: QSALTQPPSASGSPGQSVTISCTGSSSDVGGYDYVSWYQQHPGKAPKLLIYEVTKRPSGVPDRFSGSKSGNTASLTVSGLQAEDEADYYCSSYAGNYNHVFGPGTKVTVL
For the molecule B9, the OD450 in test [2] and in test [3] was 3.64 OD450 each time.

B10: TCN-539 (5056_A08) (antibody, V domains shown)
VH: QVQLVESGGGVVQPGRSLRLSCAASEITFITYAMHWVRQAPGKGLEWVALISDDGSNKFYADSVKGRFTISRDNSKNTLYLQMNSLRAEDTAAYYCAREGVYFDSGTYRGYFDYWGQETLVTVSS
VL: EIVLTQSPATLSLSPGERATLSCRASQSVSSYLAWYQQKPGQAPRLLIYDASNRATGIPARFSGSGSGTDFTLTISSLEPEDFAVYYCQQRSHWPPITFGQGTRLEIK
For the molecule B10, the “% Neutralization” value in test [1] amounted to 97%. Also, the OD450 in test [2] and in test [3] was 0.07 OD450 in each case.

B11: TCN-546 (5089_L08) (antibody, V domains shown)
VH: QVQLQQWGAGLLKPSETLSLTCGVYGGSLSDYYWSWIRQPPGKGLEWIGEINHSGGTNYNPSLKRRVTISVDTSKKQFSLKMNSVTAADTAVYYCARGTDPDTEVYCRAGNCAAFDFWGQGTLVTVSS
VL: EIVLTQSPGTLSLSPGERATLSCRASHFVIGRAVAWYQQKPGQAPRLLIYGASSRATGIPDRFSGSGSGTDFTLTISRLETEDFAVFYCQHYGSSPRYAFGQGTKLEIK
Consider B11, for which the “% Neutralization” value in test [1] amounted to 0%. Besides, the OD450 was 0.07 OD450 in test [2] and 3.67 OD450 in test [3].

B12: TCN-545 (5082_I15) (antibody, V domains shown)
VH: QVQLQQWGAGLLKPSETLSLSCAVFGGSFSDYYWTWIRQPPGKGLEWIGEIKHSGRTNYNPSLESRVTISVDTSKNQFSLKLSSVTAADTAIYYCARGTDPDTEGYCRSGSCSAFDFWGQGTLVTVSS
VL: EIVLTQSPGTLSLSPGERATLSCRASHFVNYRSLAWYQQTPGQVPRLLIYGASTRATGIPDRFSGSGSGTDFTLTISRLEPEDFAVYFCQQYGGSPRYTFGQGTRLEIK
With B12, the “% Neutralization” value in test [1] worked out at 98%. Moreover, the results for the OD450 in test [2] and in test [3] were 0.1 OD450 and 1.36 OD450, respectively.

B13: TCN-552 (5249_I23) (antibody, V domains shown)
VH: QVQVVQSGAEVKKPGSSVRVSCQASGGTFMNYAIIWVRRAPGQGLEWMGGIIPVFPTPNYAQMFQGRVTISTDESRSTSFLELTNLRYEDTAVYYCARRIYHGGNSGFDFWGQGTLVTVSS
VL: EIVLTQSPATLSLSPGERATLSCRASQSVGNYLAWYQQKPGQAPRLLIYDSSNRAPGIPARFSGSGSGTDFTLTISSLAPEDFAVYYCQQRSKWPPMYSFGHGTKLEIK
Regarding B13, in test [1], the “% Neutralization” value worked out at 57%. The results for the OD450 in test [2] and in test [3] were 2.68 OD450 and 3.61 OD450, respectively.

B14: TCN-550 (5096_F06) (antibody, V domains shown)
VH: QVQLQESGPGLVKPSETLSLTCTVSGASINSHYWSWIRQPPGKGLEWIGYVYYSGSTTYNPSLKSRVTLSVDTSKNQFSLNLSSVTAADTAFYYCARHPYDVLTGSGDWFDPWGQGTLVTVSS
VL: SYVLTQAPSVSVAPGQTARITCGGNAIGSKKVHWYQHKAGQAPVLVVYDDTDRPSGIPERFSGSNSWSTATLTINRVEAGDEADYYCQVWDFTIDHVVFGGGTKLTVL
Consider B14, for which the figures for the OD450 in test [2] and in test [3] were 0.08 OD450 and 0.13 OD450, respectively.

B15: TCN-549 (5092_P04) (antibody, V domains shown)
VH: QVQLVQSGAEVKKPGASVKVSCKASGYTFTGYYMHWVRQAPGQGLEWMGWINPNSGDTNYAQKFQGRVTMTRDTSITTAYMELSSLRSDDTAVYYCARDSPYSSSWSFFDYWGQGPLVTVSS
VL: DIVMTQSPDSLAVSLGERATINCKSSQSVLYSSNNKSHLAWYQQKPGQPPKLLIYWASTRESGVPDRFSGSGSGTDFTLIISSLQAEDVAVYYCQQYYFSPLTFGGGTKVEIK
For the molecule B15, the OD450 in test [2] turned out to be 0.08 OD450; in test [3], 0.09 OD450.

B16: TCN-540 (5060_F05) (antibody, V domains shown)
VH: QVQLVQSGGGVVQPGRSLRLSCAASGFTFSSYAMHWVRQAPGKGLEWVAIISYDGNDQYYTDSVKGRFTISRDSSKVYLQMHRLRPEDTAVYYCAKEFETSGYFHGSFDYWGQGILVTVSS
VL: QSALTQPASVSGSPGQSITISCTGTSSDVGGYNYVSWYQQHPGKAPKLLIYEVTNWPSGVSNRFSGSKSGNTASLTISGLQAEDEADYYCSSYAGSSTWVFGGGTRVTVL
Regarding B16, in test [1], the “% Neutralization” value was 100%. In addition, the results for the OD450 in test [2] and in test [3] were 3.61 OD450 and 0.09 OD450, respectively.

B17: TCN-548 (5092_P01) (antibody, V domains shown)
VH: QVQLQESGPGLVKPSETLSLTCTVSSGPMSDYYWSWIRQPPGKGLEWIGHVSVSHGGRTKSNPSVMSRVTISVETSKNQFSLKLTSVTAADTAVYYCARLNYYDRSGYHSPDGPSNNWFDPWGQGTLVTVSS
VL: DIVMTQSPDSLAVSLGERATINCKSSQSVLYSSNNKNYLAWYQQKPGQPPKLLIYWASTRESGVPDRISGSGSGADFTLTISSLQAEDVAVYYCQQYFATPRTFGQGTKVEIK
With B17, the OD450 in test [2] was determined as 0.09 OD450; in test [3], 0.13 OD450.

B18: TCN-542 (5079_A16) (antibody, V domains shown)
VH: QVQLQESGPGLVKPSQTLSLTCTVSGGSISSGNYYWNWVRQHPGKGLEWIGYIYYRGSTFYNPSLKSRVTISIDTSKNQFSLRLSSVTAADTAVYYCAKDTRSSLDNYQYGMDVWGQGTTVTVSS
VL: QTVVTQEPSLTVSPGGTVTLTCASSTGAVTSSYFPNWFQQKPGQAPRPLIYSTTIRHSWTPARFSGSLLGGKAALTLSGVQPEDEADYYCLLYSGGDPVAFGGGTKLTVL
Turning to B18, in test [1], the “% Neutralization” value stood at 98%. In addition, the figures for the OD450 in test [2] and in test [3] were 0.07 OD450 and 3.6 OD450, respectively.

The record behind these values is US20120207760A1 (THERACLONE SCIENCES, published 2012).
